Test results published in publication PMC11566906, “Transcription factor PbrERF114 is involved in the regulation of ethylene synthesis during pear fruit ripening”.

Assays:
PbrERF114 [1] = target: T1, PbrERF114 (pear, cultivar Cuiguan?, UniProt A0A5H2MWQ4 1-250); assay: EMSA; signal decreased with 10x, 50x, 200x cold probe; BLI: 137 mM NaCl, 4.3 mM Na2HPO4, 2.7 mM KCl, 1.4 mM KH2PO4, 0.02% Tween-20, pH 7.2 (PBS), streptavidin sensors, temperature not given; EMSA: LightShift Chemiluminescent EMSA kit, buffer not given; conditions: protein: recombinant; tags: His; pCold-TF vector (trigger factor fusion implied); label: biotin
T1 sequence (A0A5H2MWQ4 entry or part of it): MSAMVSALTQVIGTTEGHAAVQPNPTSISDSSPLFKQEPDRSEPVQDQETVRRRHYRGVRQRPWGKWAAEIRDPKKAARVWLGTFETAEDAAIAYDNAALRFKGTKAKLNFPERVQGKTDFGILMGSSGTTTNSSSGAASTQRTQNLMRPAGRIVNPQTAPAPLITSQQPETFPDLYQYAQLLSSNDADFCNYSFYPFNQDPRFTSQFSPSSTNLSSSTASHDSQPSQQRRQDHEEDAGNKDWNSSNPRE

PbrERF114 [2] = target: T1, PbrERF114; assay: BLI; saturated at 8382 nM; sentence names PbrERF24-His, but context and legend are PbrERF114; BLI: 137 mM NaCl, 4.3 mM Na2HPO4, 2.7 mM KCl, 1.4 mM KH2PO4, 0.02% Tween-20, pH 7.2 (PBS), streptavidin sensors, temperature not given; EMSA: LightShift Chemiluminescent EMSA kit, buffer not given; conditions: protein: recombinant; tags: His; pCold-TF vector (trigger factor fusion implied); label: biotin

B1: PbrACS3 promoter probe (PbrERF114 EMSA) (dsDNA)
DNA 1: TTACCATCTTAGGTGGCAGATGAGTTGGAC
DNA 2: GTCCAACTCATCTGCCACCTAAGATGGTAA
Question: Does B1 bind (PbrERF114 [1])?
Answer: Result: binds

B2: PbrERF24 promoter probe (dsDNA)
DNA 1: CCAGTTTACAATGGTGGCCAAGATTGTAAT
DNA 2: ATTACAATCTTGGCCACCATTGTAAACTGG
Question: How did the Kd (PbrERF114 [2]) turn out when B2 was run?
Answer: Its Kd is < 1000 nM.
